Measurements reported in patent publication US20160039936A1, “FIBROBLAST GROWTH FACTOR RECEPTOR INHIBITION FOR THE TREATMENT OF DISEASE” (UNIVERSITY OF MIAMI, priority 2011, published 2016).

B1: FGF23: recombinant mouse FGF23, 6His-tagged Tyr25-Val251 (Arg179Gln) (R&D Systems) (protein)
chain: YPDTSPLLGSNWGSLTHLYTATARTSYHLQIHRDGHVDGTPHQTIYSALMITSEDAGSVVITGAMTRRFLCMDLHGNIFGSLHFSPENCKFRQWTLENGYDVYLSQKHHYLVSLGRAKRIFQPGTNPPPFSQFLARRNEVPLLHFYTVRPRRHTQSAEDPPERDPLNVLKPRPRATPVPVSCSRELPSAEEGGPAASDPLGVLRRGRGDARGGAGGADRCRPFPRFV
modifications: left off: small tags and cut ends
B2: FGF2: recombinant mouse FGF2 (Ala11-Ser154) (R&D Systems) (protein)
chain: ALPEDGGAAFPPGHFKDPKRLYCKNGGFFLRIHPDGRVDGVREKSDPHVKLQLQAEERGVVSIKGVCANRYLAMKEDGRLLASKCVTEECFFFERLESNNYNTYRSRKYSSWYVALKRTGQYKLGSKTGPGQKAILFLPMSAKS

Columns and labels:
[1] = system: isolated NRVM; assay: Cross-sectional area (hypertrophy) of isolated NRVM with receptor antagonists (Example 4); format: cell-based, rat; details: for cross-sectional area of isolated NRVM: 48 h, FGF alone 25 ng/ml vs PBS
Protocol: NRVM were isolated using a standard isolation system (Worthington Biochemical Corporation) (Faul et al., 2011). Hearts from 1-2 day old Sprague Dawley rats were harvested, minced in calcium-and magnesium-free Hank's Balanced Salt Solution (HBSS), and the tissue digested with 50 μg/ml trypsin at 4° C. for 20-24 hours. Soybean trypsin inhibitor in HBSS was added, and the tissue was further digested with collagenase (in Leibovitz L-15 medium) under slow rotation (15 rpm) at 37° C. for 45 minutes. Cells were released by triturating the suspension 20 times with a standard 10 ml plastic serological pipette and filtering it twice through a cell strainer (70 μm, BD Falcon). Cells were incubated at room temperature for 20 minutes and spun at 100 g for 5 minutes. The cell pellet was resuspended in plating medium [Dulbecco's Modified Eagle Medium (DMEM; Cellgro) with 17% Media 199 (Invitrogen), 15% fetal bovine serum (FBS; Invitrogen) and 1% penicillin/streptomycin solution (P/S; Invitrogen)]. Cells were counted using a hemocytometer.
Cells were plated on glass and plastic surfaces, which were coated with laminin (Invitrogen; 10 μg/ml in PBS) at room temperature for 1 hour prior to plating. For immunofluorescence analysis, 3×10^5 cells were seeded per well on glass coverslips in 24-well plates. For Western blot or qPCR analyses of total extracts, 1×10^6 cells were seeded per well in 6-well plates, and for immunoprecipitation assays, 5×10^6 cells were seeded in 10 cm-culture dishes. Cells were left undisturbed in plating medium at 37° C. for 72 hours and then cultured in maintenance medium (DMEM with 20% Media 199, 1% insulin-transferrin-sodium selenite solution [ITS; Sigma-Aldrich] and 1% P/S) in the presence of 100 μM 5-bromo-2′-deoxyuridine (BrdU; Sigam-Aldrich). After 4 days, isolated cardiac myocytes were cultured in BrdU-containing maintenance medium in the presence of recombinant murine FGF23 or FGF2 (both at 25 ng/ml) for different time points.
(§1) Cultured cells were fixed in 2% PFA (in 5 mg/ml sucrose) for 5 minutes and permeabilized in 1% Triton X-100 (in PBS) for 10 minutes. We analyzed hypertrophic growth of isolated NRVM and NMVM on laminin-coated glass coverslips after 48 hours of treatment with growth factors. For FGFR4 expression and localization analyses, untreated NMVM from wild-type and FGFR4^−/− mice were immunolabeled. The mouse monoclonal antibody against sarcomeric α-actinin (EA-53; Sigma-Aldrich) was used at 1:1,000, and rabbit polyclonal anti-FGFR4 (C-16; Santa Cruz) at 1:50. Cy3-conjugated goat-anti mouse and Alexa488-conjugated goat-anti rabbit (Jackson Immuno Research) were used as secondary antibodies at 1:300. To visualize nuclei, fixed cells were incubated with 4′,6-diamidino-2-phenylindole (DAPI; 400 ng/ml in PBS) for 10 minutes. Immunofluorescence images were taken on a Leica TCS-SP5 confocal microscope with a 63× oil objective.
Myocyte cross-sectional area was measured based on α-actinin-positive staining using Leica AF6000 fluorescence software. To assess the signaling pathways involved in FGF23- and FGF2-mediated hypertrophy, we analyzed the morphometry of plated cells that were pre-treated with specific inhibitors for 60 minutes prior to the addition of the FGFs at 25 ng/ml (NRVMs) or at 100 ng/ml (NMVMs). The following inhibitors and concentrations were used: pan-FGFR, PD173074 (Sigma-Aldrich) at 10 nM; FGFR1-3, AZD4547 (ChemieTek) at 5 nM; and FGFR4 blocking antibody (human monoclonal, U3-11; U3Pharma) at 10 μg/ml.

[2] = system: neonatal mouse ventricular myocytes (NMVM); assay: Hypertrophic growth and β-MHC of isolated NMVM (wild-type or FGFR4−/−); format: cell-based; details: 48 h
Protocol: NMVM were isolated enzymatically (Kreusser et al., 2014). Briefly, hearts from 1-3 day-old mice were harvested, minced in PBS/glucose and further digested with collagenase type 2 (0.2% w/v) and DNase (0.05% w/v) on a rotary shaker at 37° C. for 11 minutes. Cells were then released from the tissue by triturating the suspension twice with a standard 10 ml plastic serological pipette, transferred to DF10 medium (Dulbecco's Modified Eagle Medium/Ham's Nutrient Mixture F12 adjusted to 17 mM NaHCO2 containing 2 mM L-glutamine, 1% P/S and 10% FBS), and stored on ice. The remaining tissue was further incubated in PBS/glucose/collagenase/DNase solution on a rotary shaker at 37° C. for 11 minutes. The trituration and incubation steps were repeated 5-7 times until the tissue was completely dissolved. Cells were pelleted at 300 g for 5 minutes, resuspended in DF20 media (Dulbecco's Modified Eagle Medium/Ham's Nutrient Mixture F12 adjusted to 17 mM NaHCO2 containing 2 mM L-glutamine, 1% P/S and 20% FBS), and preplated for 1 hour to eliminate fibroblasts. Remaining cells were counted using a hemocytometer and plated on glass and plastic surfaces, which were coated with laminin (Sigma-Aldrich; 10 μg/ml in PBS) at room temperature for 1 hour prior to plating. For immunofluorescence analysis, 3×10^5 cells were seeded per well on glass coverslips in 24-well plates. For Western blot analyses of total protein extracts, 5×10^6 cells were seeded in 10 cm-culture dishes. Cells were left undisturbed in DF20 medium at 37° C. for 72 hours, starved overnight with DF medium (Dulbecco's Modified Eagle Medium/Ham's Nutrient Mixture F12 adjusted to 17 mM NaHCO2 containing 2 mM L-glutamine, 1% P/S), and treated in DF medium with recombinant FGF23, FGF2 (both at 100 ng/ml) or AngII (1 μM, Sigma-Aldrich) for 48 hours.
HEK293 cells, NRVM or NMVM were treated with growth factors for 30 minutes to analyze activation of signal transduction mediators, or for 48 hours to analyze expression levels of hypertrophic marker proteins. Cells were scraped from 6-well plates using 500 μl CHAPS extraction buffer (20 mM Tris-HCl pH7.5, 500 mM NaCl, 0.5% CHAPS, protease inhibitor cocktail (Roche), protein phosphatase inhibitors [Sigma-Aldrich]) and incubated on ice for 30 minutes. The cell lysate was centrifuged at 14,000 rpm and 4° C. for 30 minutes, and the supernatant boiled in sample buffer and analyzed by SDS-PAGE and immunoblotting. For protein extraction from mouse hearts, tissue was isolated, minced and homogenized in RIPA extraction buffer (50 mM Tris-HCl pH 7.5, 200 mM NaCl, 1% Triton X-100, 0.25% DOC, 1 mM EDTA, 1 mM EGTA, protease and phosphatase inhibitors) at 1:10 (w:v), and protein lysates were prepared as described above.
as §1
Myocyte cross-sectional area was measured based on α-actinin-positive staining using Leica AF6000 fluorescence software. […]

Molecule | FGF2-induced hypertrophy (cross-sectional area) with receptor antagonist ([1]; NRVM 48 h, FGF2 25 ng/ml, PD173074 10 nM, AZD4547 5 nM, anti-FGFR4 10 μg/ml) | FGF23-induced hypertrophy (cross-sectional area) with receptor antagonist ([1]; NRVM 48 h, FGF23 25 ng/ml, PD173074 10 nM, AZD4547 5 nM, anti-FGFR4 10 μg/ml) | expression of β-MHC protein in wild-type NMVM ([2]; immunoblot) | cross-sectional area of wild-type NMVM ([2]; FGF 100 ng/ml, AngII 1 μM) | cross-sectional area of isolated NRVM [1] | expression of β-MHC protein in FGFR4−/− NMVM ([2]; immunoblot) | cross-sectional area (size) of NMVM from FGFR4−/− mice ([2]; FGF 100 ng/ml, AngII 1 μM)
CCN(CC)CCCCNc1ncc2cc(-c3cc(OC)cc(OC)c3)c(NC(=O)NC(C)(C)C)nc2n1 [PD173074] | inhibited | inhibited | – | – | – | – | –
B1 | – | – | increased expression | significant increases | significantly increases | – | –
B2 | – | – | increased expression | significant increases | significantly increases | induced this effect | increase the size
